Assay results: publication PMC9969015

Biological target: integrins on T cells
Experiment: flow cytometry on cells
Details: read off a plot

| Substance | response (parent: est. 21) [MFI] | response (parent: est. 36) [MFI] |
| --- | --- | --- |
| S-RBD protein with C-terminal human Fc-tag (receptor-binding domain of SARS-CoV-2 S protein) D405E | 5 | 6.5 |
| S-RBD protein with C-terminal human Fc-tag (receptor-binding domain of SARS-CoV-2 S protein) D442E | 8 | 9 |
| S-RBD protein with C-terminal human Fc-tag (receptor-binding domain of SARS-CoV-2 S protein) D586E | 2 | 2.5 |
